Experimental data from paper PMC7647061, “Expression, purification and characterization of α-synuclein fibrillar specific scFv from inclusion bodies” (PLoS ONE, 2020).

Biological target: full-length α-syn140 fibrils (Homo sapiens (assumed), UniProt P37840)
Assay: far-Western, overlay or dot blot; dot blot: antigen (monomeric or fibrillar) spotted on nitrocellulose in 5 μl, air-dried, blocked in 5% skimmed milk in PBST; scFv-F 5 μg/mL overnight at 4°C; detected by anti-His and HRP secondary antibody
Conditions: both partners purified

B1: single-chain variable fragment (scFv-F) antibody (scFv, V domains shown)
VH: DVQLVESGGGLVQPGGSRKLSCAASGFTFSSFGMHWVRQAPEKGLEWVAYISSGSSTIYYADTVKGRFTISRDNPKNTLFLQMTSLRSEDTAMYYCARGNNPGTGYYYAMDYWGQGTSVTVSS
VL: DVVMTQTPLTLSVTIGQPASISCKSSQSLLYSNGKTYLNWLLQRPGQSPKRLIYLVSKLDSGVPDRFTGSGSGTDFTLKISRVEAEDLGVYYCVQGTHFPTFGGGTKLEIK
notes: VL of mouse monoclonal antibody Syn-F2; (Gly4Ser)3 linker, written out from the printed formula; VH of mouse monoclonal antibody Syn-F2; Order VL-(Gly4Ser)3-VH-6xHis; Final construct is in pET28a; the vector may add residues at the N-terminus (the model's residue numbers Tyr215 and Thr269 hint at a chain longer than VL-linker-VH alone); not shown: His6, C-terminal, kept
- binding result: binds
